Test results reported in US20160108118A1.

B1: scFv-phage clone 12D (scFv, part only; not given: scFv linker and domain order, part only)
scFv, part: QVQLVQSGGGVVQPGRSLRLSCVASAFTFSRYGMHWVRQAPGKGLEWVALISYDGSSEYYADSVKGRFNISRDNSKNTVYLQMNSLRAEDTAVYYCVKDGLAAKLGHWGQGTLVTVSSQAPSLSVSPGQTANIICSGDNLRTKYVSWYQQKPGQSPLLVIYQDTRRPSGIPARFSGSNSGNTATLTISGTQTERESTYYCMTWDVDTTSMIFGGGTKLTVLG
B2: scFv-phage clone 10D (scFv)
scFv: QVQLVQSGGGVVQPGRSLRLSCAASGFTFSSYGMHWVRQAPGKGLEWVAVISYDGSNKYYADSVKGRFTISRDNSKNTLYLQMNSLRSEDTAVYYCARDKRAAFDIWGQGKMVTVSSGLGGLGGGGSGGGGSGGSSGVGSSYELTQAPSLSVSPGQTANIICSGDNLRTKYVSWYQQKPGQSPLLVIYQDTRRPSGIPARFSGSNSGNTATLTISGTQTERESTYYCMTWDVDTTSMIFGGGTKLTVL
B3: scFv-phage clone 9E (scFv, part only; not given: scFv linker and domain order, part only)
scFv, part: QVQLVESGGGVVQPGRSLRLSCAASGFTFSSYGMHWVRQAPGKGLEWVAVISYDGNNKYYVDSVKGRFTISRDNSKNTLYLQMNSLRSEDTAVYYCARDSGSYLDWYFDLWGRGTLVTVSSQPPSVSVAPGKTARIACGGGNIGDKSVHWYQQKPGQAPVLVIFYDSDRPSGIPKRLSGSNSGNTATLTISRVEAGDEGDYYCQVWDSSSDRPVFGGGTKLTVLG

How the values were obtained:
[1] = biological target: His (control coat of Table 2); experiment: phage ELISA
[2] = biological target: α-myc (anti-myc antibody coated as second antigen); experiment: phage ELISA

Row | Binder | OD490 [1] | OD490 [2]
1 | B1 | 0.049 | 0.888
2 | B2 | – | 3.02
3 | B3 | 0.043 | 2.01
